According to the supplement of paper PMC5998384:

Key:
HeLa Kyoto [1] = assay: solubility in G1/S (NP-40 vs SDS abundance) (log2 ratio); higher = more soluble; details: cell cycle stage: G1/S
HeLa Kyoto [2] = assay: solubility change mitosis vs G1/S (difference of NP-40 vs SDS log2 ratios) (log2 ratio difference); higher = more soluble in mitosis
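Wherever solubility change mitosis vs G1/S (difference of NP-40 vs SDS log2 ratios) is given: synchronized HeLa Kyoto cells (double thymidine block for G1/S, nocodazole release for mitosis), protein amounts in NP-40 versus SDS lysates quantified by mass spectrometry, three biological replicates.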
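Wherever solubility in G1/S (NP-40 vs SDS abundance) is given: HeLa Kyoto cells arrested at G1/S by double thymidine block, proteins quantified by TMT10plex mass spectrometry in mild NP-40 versus SDS extracts, three biological replicates.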

ISG20, sequence (chain, as listed by the source): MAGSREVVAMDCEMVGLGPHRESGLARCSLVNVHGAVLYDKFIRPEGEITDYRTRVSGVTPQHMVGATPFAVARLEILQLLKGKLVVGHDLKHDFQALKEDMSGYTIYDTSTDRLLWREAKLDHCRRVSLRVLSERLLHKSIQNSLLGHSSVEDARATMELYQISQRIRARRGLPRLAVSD

Row | Substance | solubility in G1/S (log2) (HeLa Kyoto [1]) | solubility change mitosis (log2) (HeLa Kyoto [2])
1 | MASSHSSSPVPQGSSSDVFFKIEVDPSKHIRPVPSLPDVCPKEPTGDSHSLYVAPSLVTDQHRWTVYHSKVNLPAALNDPRLAKRESDFFTKTWGLDFVDTEVIPSFYLPQISKEHFTVYQQEISQREKIHERCKNICPPKDTFERTLLHTHDKSRTDLEQVPKIFMKPDFALDDSLTFNSVLPWSHFNTAGGKGNRDAASSKLLQEKLSHYLDIVEVNIAHQISLRSEAFFHAMTSQHELQDYLRKTSQAVKMLRDKIAQIDKVMCEGSLHILRLALTRNNCVKVYNKLKLMATVHQTQPTVQVLLSTSEFVGALDLIATTQEVLQQELQGIHSFRHLGSQLCELEKLIDKMMIAEFSTYSHSDLNRPLEDDCQVLEEERLISLVFGLLKQRKLNFLEIYGEKMVITAKNIIKQCVINKVSQTEEIDTDVVVKLADQMRMLNFPQWFDLLKDIFSKFTIFLQRVKATLNIIHSVVLSVLDKNQRTRELEEISQQKNAAKDNSLDTEVAYLIHEGMFISDAFGEGELTPIAVDTTSQRNASPNSEPCSSDSVSEPECTTDSSSSKEHTSSSAIPGGVDIMVSEDMKLTDSELGKLANNIQELLYSASDICHDRAVKFLMSRAKDGFLEKLNSMEFITLSRLMETFILDTEQICGRKSTSLLGALQSQAIKFVNRFHEERKTKLSLLLDNERWKQADVPAEFQDLVDSLSDGKIALPEKKSGATEERKPAEVLIVEGQQYAVVGTVLLLIRIILEYCQCVDNIPSVTTDMLTRLSDLLKYFNSRSCQLVLGAGALQVVGLKTITTKNLALSSRCLQLIVHYIPVIRAHFEARLPPKQYSMLRHFDHITKDYHDHIAEISAKLVAIMDSLFDKLLSKYEVKAPVPSACFRNICKQMTKMHEAIFDLLPEEQTQMLFLRINASYKLHLKKQLSHLNVINDGGPQNGLVTADVAFYTGNLQALKGLKDLDLNMAEIWEQKR [VPS54] | -0.136 | 0.126
2 | MAALAEEQTEVAVKLEPEGPPTLLPPQAGDGAGEGSGGTTNNGPNGGGGNVAASSSTGGDGGTPKPTVAVSAAAPAGAAPVPAAAPDAGAPHDRQTLLAVLQFLRQSKLREAEEALRREAGLLEEAVAGSGAPGEVDSAGAEVTSALLSRVTASAPGPAAPDPPGTGASGATVVSGSASGPAAPGKVGSVAVEDQPDVSAVLSAYNQQGDPTMYEEYYSGLKHFIECSLDCHRAELSQLFYPLFVHMYLELVYNQHENEAKSFFEKFHGDQECYYQDDLRVLSSLTKKEHMKGNETMLDFRTSKFVLRISRDSYQLLKRHLQEKQNNQIWNIVQEHLYIDIFDGMPRSKQQIDAMVGSLAGEAKREANKSKVFFGLLKEPEIEVPLDDEDEEGENEEGKPKKKKPKKDSIGSKSKKQDPNAPPQNRIPLPELKDSDKLDKIMNMKETTKRVRLGPDCLPSICFYTFLNAYQGLTAVDVTDDSSLIAGGFADSTVRVWSVTPKKLRSVKQASDLSLIDKESDDVLERIMDEKTASELKILYGHSGPVYGASFSPDRNYLLSSSEDGTVRLWSLQTFTCLVGYKGHNYPVWDTQFSPYGYYFVSGGHDRVARLWATDHYQPLRIFAGHLADVNCTRFHPNSNYVATGSADRTVRLWDVLNGNCVRIFTGHKGPIHSLTFSPNGRFLATGATDGRVLLWDIGHGLMVGELKGHTDTVCSLRFSRDGEILASGSMDNTVRLWDAIKAFEDLETDDFTTATGHINLPENSQELLLGTYMTKSTPVVHLHFTRRNLVLAAGAYSPQ [TAF5] | -0.0963 | 0.00763
3 | MAAAAAETPEVLRECGCKGIRTCLICERQRGSDPPWELPPAKTYRFIYCSDTGWAVGTEESDFEGWAFPFPGVMLIEDFVTREEEAELVRLMDRDPWKLSQSGRRKQDYGPKVNFRKQKLKTEGFCGLPSFSREVVRRMGLYPGLEGFRPVEQCNLDYCPERGSAIDPHLDDAWLWGERLVSLNLLSPTVLSMCREAPGSLLLCSAPSAAPEALVDSVIAPSRSVLCQEVEVAIPLPARSLLVLTGAARHQWKHAIHRRHIEARRVCVTFRELSAEFGPGGRQQELGQELLRIALSFQGRPV [ALKBH4] | 0.184 | -0.0312
4 | MFRIEGLAPKLDPEEMKRKMREDVISSIRNFLIYVALLRVTPFILKKLDSI [TOMM5] | -0.518 | -0.172
5 | FAM208B | -0.671 | 0.423
6 | ISG20 | 0.28 | -0.182
7 | MPPQLQETRMNRSIPVEVDESEPYPSQLLKPIPEYSPEEESEPPAPNIRNMAPNSLSAPTMLHNSSGDFSQAHSTLKLANHQRPVSRQVTCLRTQVLEDSEDSFCRRHPGLGKAFPSGCSAVSEPASESVVGALPAEHQFSFMEKRNQWLVSQLSAASPDTGHDSDKSDQSLPNASADSLGGSQEMVQRPQPHRNRAGLDLPTIDTGYDSQPQDVLGIRQLERPLPLTSVCYPQDLPRPLRSREFPQFEPQRYPACAQMLPPNLSPHAPWNYHYHCPGSPDHQVPYGHDYPRAAYQQVIQPALPGQPLPGASVRGLHPVQKVILNYPSPWDHEERPAQRDCSFPGLPRHQDQPHHQPPNRAGAPGESLECPAELRPQVPQPPSPAAVPRPPSNPPARGTLKTSNLPEELRKVFITYSMDTAMEVVKFVNFLLVNGFQTAIDIFEDRIRGIDIIKWMERYLRDKTVMIIVAISPKYKQDVEGAESQLDEDEHGLHTKYIHRMMQIEFIKQGSMNFRFIPVLFPNAKKEHVPTWLQNTHVYSWPKNKKNILLRLLREEEYVAPPRGPLPTLQVVPL [TRAF3IP2] | -0.199 | 0.168
8 | MAAVGPPQQQVRMAHQQVWAALEVALRVPCLYIIDAIFNSYPDSSQSRFCIVLQIFLRLFGVFASSIVLILSQRSLFKFYTYSSAFLLAATSVLVNYYASLHIDFYGAYNTSAFGIELLPRKGPSLWMALIVLQLTFGIGYVTLLQIHSIYSQLIILDLLVPVIGLITELPLHIRETLLFTSSLILTLNTVFVLAVKLKWFYYSTRYVYLLVRHMYRIYGLQLLMEDTWKRIRFPDILRVFWLTRVTAQATVLMYILRMANETDSFFISWDDFWDLICNLIISGCDSTLTVLGMSAVISSVAHYLGLGILAFIGSTEEDDRRLGFVAPVLFFILALQTGLSGLRPEERLIRLSRNMCLLLTAVLHFIHGMTDPVLMSLSASHVSSFRRHFPVLFVSACLFILPVLLSYVLWHHYALNTWLFAVTAFCVELCLKVIVSLTVYTLFMIDGYYNVLWEKLDDYVYYVRSTGSIIEFIFGVVMFGNGAYTMMFESGSKIRAFMMCLHAYFNIYLQAKNGWKTFMNRRTAVKKINSLPEIKGSRLQEINDVCAICYHEFTTSARITPCNHYFHALCLRKWLYIQDTCPMCHQKVYIEDDIKDNSNVSNNNGFIPPNETPEEAVREAAAESDRELNEDDSTDCDDDVQRERNGVIQHTGAAAEEFNDDTD [RNF139] | -0.206 | -0.107
9 | MKMEEAVGKVEELIESEAPPKASEQETAKEEDGSVELESQVQKDGVADSTVISSMPCLLMELRRDSSESQLASTESDKPTTGRVYESDSSNHCMLSPSSSGHLADSDTLSSAEENEPSQAETAVEGDPSGVSGATVGRKSRRSRSESETSTMAAKKNRQSSDKQNGRVAKVKGHRSQKHKERIRLLRQKREAAARKKYNLLQDSSTSDSDLTCDSSTSSSDDDEEVSGSSKTITAEIPDGPPVVAHYDMSDTNSDPEVVNVDNLLAAAVVQEHSNSVGGQDTGATWRTSGLLEELNAEAGHLDPGFLASDKTSAGNAPLNEEINIASSDSEVEIVGVQEHARCVHPRGGVIQSVSSWKHGSGTQYVSTRQTQSWTAVTPQQTWASPAEVVDLTLDEDSRRKYLL [C18ORF25] | -0.0209 | -0.243
10 | MILTKAQYDEIAQCLVSVPPTRQSLRKLKQRFPSQSQATLLSIFSQEYQKHIKRTHAKHHTSEAIESYYQRYLNGVVKNGAAPVLLDLANEVDYAPSLMARLILERFLQEHEETPPSKSIINSMLRDPSQIPDGVLANQVYQCIVNDCCYGPLVDCIKHAIGHEHEVLLRDLLLEKNLSFLDEDQLRAKGYDKTPDFILQVPVAVEGHIIHWIESKASFGDECSHHAYLHDQFWSYWNRFGPGLVIYWYGFIQELDCNRERGILLKACFPTNIVTLCHSIA [C15ORF41] | 0.176 | 0.0246
11 | MASNSSSCPTPGGGHLNGYPVPPYAFFFPPMLGGLSPPGALTTLQHQLPVSGYSTPSPATIETQSSSSEEIVPSPPSPPPLPRIYKPCFVCQDKSSGYHYGVSACEGCKGFFRRSIQKNMVYTCHRDKNCIINKVTRNRCQYCRLQKCFEVGMSKESVRNDRNKKKKEVPKPECSESYTLTPEVGELIEKVRKAHQETFPALCQLGKYTTNNSSEQRVSLDIDLWDKFSELSTKCIIKTVEFAKQLPGFTTLTIADQITLLKAACLDILILRICTRYTPEQDTMTFSDGLTLNRTQMHNAGFGPLTDLVFAFANQLLPLEMDDAETGLLSAICLICGDRQDLEQPDRVDMLQEPLLEALKVYVRKRRPSRPHMFPKMLMKITDLRSISAKGAERVITLKMEIPGSMPPLIQEMLENSEGLDTLSGQPGGGGRDGGGLAPPPGSCSPSLSPSSNRSSPATHSP [RARA] | 0.18 | -0.153
12 | MLGTVKMEGHETSDWNSYYADTQEAYSSVPVSNMNSGLGSMNSMNTYMTMNTMTTSGNMTPASFNMSYANPGLGAGLSPGAVAGMPGGSAGAMNSMTAAGVTAMGTALSPSGMGAMGAQQAASMNGLGPYAAAMNPCMSPMAYAPSNLGRSRAGGGGDAKTFKRSYPHAKPPYSYISLITMAIQQAPSKMLTLSEIYQWIMDLFPYYRQNQQRWQNSIRHSLSFNDCFVKVARSPDKPGKGSYWTLHPDSGNMFENGCYLRRQKRFKCEKQPGAGGGGGSGSGGSGAKGGPESRKDPSGASNPSADSPLHRGVHGKTGQLEGAPAPGPAASPQTLDHSGATATGGASELKTPASSTAPPISSGPGALASVPASHPAHGLAPHESQLHLKGDPHYSFNHPFSINNLMSSSEQQHKLDFKAYEQALQYSPYGSTLPASLPLGSASVTTRSPIEPSALEPAYYQGVYSRPVLNTS [FOXA1] | 0.392 | 0.0934
13 | MSAQTSPAEKGLNPGLMCQESYACSGTDEAIFECDECCSLQCLRCEEELHRQERLRNHERIRLKPGHVPYCDLCKGLSGHLPGVRQRAIVRCQTCKINLCLECQKRTHSGGNKRRHPVTVYNVSNLQESLEAEEMDEETKRKKMTEKVVSFLLVDENEEIQVTNEEDFIRKLDCKPDQHLKVVSIFGNTGDGKSHTLNHTFFYGREVFKTSPTQESCTVGVWAAYDPVHKVAVIDTEGLLGATVNLSQRTRLLLKVLAISDLVIYRTHADRLHNDLFKFLGDASEAYLKHFTKELKATTARCGLDVPLSTLGPAVIIFHETVHTQLLGSDHPSEVPEKLIQDRFRKLGRFPEAFSSIHYKGTRTYNPPTDFSGLRRALEQLLENNTTRSPRHPGVIFKALKALSDRFSGEIPDDQMAHSSFFPDEYFTCSSLCLSCGVGCKKSMNHGKEGVPHEAKSRCRYSHQYDNRVYTCKACYERGEEVSVVPKTSASTDSPWMGLAKYAWSGYVIECPNCGVVYRSRQYWFGNQDPVDTVVRTEIVHVWPGTDGFLKDNNNAAQRLLDGMNFMAQSVSELSLGPTKAVTSWLTDQIAPAYWRPNSQILSCNKCATSFKDNDTKHHCRACGEGFCDSCSSKTRPVPERGWGPAPVRVCDNCYEARNVQLAVTEAQVDDEGGTLIARKVGEAVQNTLGAVVTAIDIPLGLVKDAARPAYWVPDHEILHCHNCRKEFSIKLSKHHCRACGQGFCDECSHDRRAVPSRGWDHPVRVCFNCNKKPGDL [ZFYVE1] | -0.282 | -0.0704
